Positions count from the first letter of the chain named. Numbers in names are those of the source.
Experiments:
[1] = molecular target: T1, Ta RhaD (rhamnose dehydrogenase) (Thermoplasma acidophilum, UniProt Q9HK58); assay: dehydrogenase activity, NADPH absorbance at […] nm; type: biochemical; conditions: NADP+ co-substrate, 55 °C; read-out of refolding assay
T1 sequence (Q9HK58 1-254): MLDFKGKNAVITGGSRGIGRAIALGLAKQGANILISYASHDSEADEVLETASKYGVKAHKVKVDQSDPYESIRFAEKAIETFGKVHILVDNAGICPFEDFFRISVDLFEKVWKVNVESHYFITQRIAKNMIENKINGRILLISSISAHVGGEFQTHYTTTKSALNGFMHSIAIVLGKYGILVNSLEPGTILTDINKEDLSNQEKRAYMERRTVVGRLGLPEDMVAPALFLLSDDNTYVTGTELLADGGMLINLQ

[2] = substrate: Nc1ncnc2c1ncn2[C@@H]1O[C@H](COP(=O)(O)OP(=O)(O)OP(=O)(O)O)[C@@H](O)[C@H]1O; assay: steady-state ATPase, malachite green phosphate release; type: biochemical, Thermoplasma acidophilum; conditions: 55 °C, pH 7.5, 25 mM Tris-HCl, 50 mM KCl, 20 mM MgCl2, 50 mM NaCl
From the text: steady-state ATPase, malachite green phosphate release on Ta thermosome α8β8

[3] = molecular target: the molecule itself; assay: SEC + native gel or EMSA; α (intraloop His6) and β co-expressed in E. coli; complexes purified to homogeneity as in ref. 29; integrity by Superose 6 Increase SEC (main peak ≅950 kDa) and native-PAGE 3–12% (≅1 MDa); subunit composition by Tris-Acetate SDS-PAGE (7%) of the purified proteins
[4] = molecular target: the molecule itself; assay: as above; remark: listed apart in the source
[5] = substrate: Nc1ncnc2c1ncn2[C@@H]1O[C@H](COP(=O)(O)OP(=O)(O)OP(=O)(O)O)[C@@H](O)[C@H]1O; assay: steady-state ATPase, malachite green phosphate release; type: biochemical, Thermoplasma acidophilum; conditions: single transition, 55 °C, pH 7.5, 25 mM Tris-HCl, 50 mM KCl, 20 mM MgCl2, 50 mM NaCl
From the text: steady-state ATPase, malachite green phosphate release on WTα16 (α-only thermosome)

[6] = molecular target: the molecule itself; assay: SEC + native gel or EMSA; α subunit expressed in E. coli in the absence of the β; purified α16 complex; integrity by SEC and native PAGE
[7] = single transition, hydrolysis assigned to the WT beta subunits
[8] = single transition, hydrolysis on the WT alpha subunits only

With C[C@@H]1OC(O)[C@H](O)[C@H](O)[C@H]1O (stereo partly drawn) [L-rhamnose] the “dehydrogenase activity, NADPH absorbance at 340 nm” value [1] was “RhaD catalyzes the NADP^+-dependent oxidation of L-rhamnose”.

B1: Ta thermosome α8β8 (Thermoplasma acidophilum DSM 1728; P48424:D94A) (protein)
chain 1: MMTGQVPILVLKEGTQREQGKNAQRNNIEAAKAIADAVRTTLGPKGMDKMLVDSIGDIIISNDGATILKEMDVEHPTAKMIVEVSKAQDTAVGAGTTTAVVLSGELLKQAETLLDQGVHPTVISNGYRLAVNEARKIIDEIAEKSTDDATLRKIALTALSGKNTGLSNDFLADLVVKAVNAVAEVRDGKTIVDTANIKVDKKNGGSVNDTQFISGIVIDKEKVHSKMPDVVKNAKIALIDSALEIKKTEIEAKVQISDPSKIQDFLNQETNTFKQMVEKIKKSGANVVLCQKGIDDVAQHYLAKEGIYAVRRVKKSDMEKLAKATGAKIVTDLDDLTPSVLGEAETVEERKIGDDRMTFVMGCKNPKAVSILIRGGTDHVVSEVERALNDAIRVVAITKEDGKFLWGGGAVEAELAMRLAKYANSVGGREQLAIEAFAKALEIIPRTLAENAGIDPINTLIKLKAEHEKGRISVGVDLDNNGVGDMKAKGVVDPLRVKTHALESAVEVATMILRIDDVIASKKSTPPSGQGGQGQGMPGGGMPEY
chain 2: MIAGQPIFILKEGTKRESGKDAMKENIEAAIAISNSVRSSLGPRGMDKMLVDSLGDIVITNDGVTILKEMDVEHPAAKMMVEVSKTQDSFVGDGTTTAVIIAGGLLQQAQGLINQNVHPTVISEGYRMASEEAKRVIDEISTKIGADEKALLLKMAQTSLNSKSASVAKDKLAEISYEAVKSVAELRDGKYYVDFDNIQVVKKQGGAIDDTQLINGIIVDKEKVHPGMPDVVKDAKIALLDAPLEIKKPEFDTNLRIEDPSMIQKFLAQEENMLREMVDKIKSVGANVVITQKGIDDMAQHYLSRAGIYAVRRVKKSDMDKLAKATGASIVSTIDEISSSDLGTAERVEQVKVGEDYMTFVTGCKNPKAVSILVRGETEHVVDEMERSITDSLHVVASALEDGAYAAGGGATAAEIAFRLRSYAQKIGGRQQLAIEKFADAIEEIPRALAENAGLDPIDILLKLRAEHAKGNKTYGINVFTGEIEDMVKNGVIEPIRVGKQAIESATEAAIMILRIDDVIATKSSSSSSNPPKSGSSSESSED
notes: recombinant co-expression in E. coli BL21(DE3) Codon Plus-RIL, construct aK144HTTherm, intraloop His6-tag in each alpha subunit (kept), hexadecamer isolated on Superose 6, about 1 MDa
B1 was tested, and the Km [2, 7] was 82 ± 8.7 µM and the kcat [2, 7] was 2.4 ± 0.09 mol ATP/(mol active sites × min).

B2: Thermoplasma acidophilum thermosome α subunit D94K, with intraloop His6-tag (natural protein)
chain: B1 chain 1 with A94K
notes: Thermoplasma acidophilum thermosome α subunit, NCBI CAC12109; site-directed mutant of construct aK144HTTherm; also called D94Kα; not shown: His6, internal (intraloop), kept
B2 was tested, and the “stoichiometry N” value [3] was 16.

B3: Ta thermosome α8β8 (Thermoplasma acidophilum DSM 1728) (protein)
chain 1: B1 chain 1 with A94D
chain 2: B1 chain 2
notes: as for B1
With B3 the Km ([2]; biphasic, tight site) was 15 ± 1.65 µM and the kcat ([2]; biphasic, tight site) was 2.15 ± 0.12 mol ATP/(mol active sites × min).

B4: Thermoplasma acidophilum thermosome α subunit T97V, with intraloop His6-tag (natural protein)
chain: B1 chain 1 with A94D, T97V
notes: Thermoplasma acidophilum thermosome α subunit, NCBI CAC12109; site-directed mutant of construct aK144HTTherm; also called T97Vα; not shown: His6, internal (intraloop), kept
With B4 the “stoichiometry N” value [3] was 16.

B5: Thermoplasma acidophilum thermosome α subunit D94E, with intraloop His6-tag (natural protein)
chain: B1 chain 1 with A94E
notes: Thermoplasma acidophilum thermosome α subunit, NCBI CAC12109; site-directed mutant of construct aK144HTTherm; also called Asp94α to a glutamate residue; not shown: His6, internal (intraloop), kept
In the case of B5, the “stoichiometry N” value [4] is reported as 16.

B6: Thermoplasma acidophilum thermosome α subunit, wild type, with intraloop His6-tag (natural protein)
chain: B1 chain 1 with A94D
notes: Thermoplasma acidophilum thermosome α subunit, NCBI CAC12109; also called WTα; weak subunit; not shown: His6, internal (intraloop), kept
With B6 the Km [5] was 140 ± 15.7 µM, the kcat [5] was 0.33 ± 0.015 mol ATP/(mol active sites × min) and the “stoichiometry N” value [6] was 16. The “stoichiometry N” value [3] was 16.

B7: Ta thermosome α8β8 (Thermoplasma acidophilum DSM 1728; P48425:D93K) (protein)
chain 1: B1 chain 1 with A94D
chain 2: B1 chain 2 with D93K
notes: as for B1
For B7, the Km [2, 8] was 285 ± 35 µM and the kcat [2, 8] was 1.7 ± 0.14 mol ATP/(mol active sites × min).

Reference: paper PMC5983026, “Intraring allostery controls the function and assembly of a hetero-oligomeric class II chaperonin” (The FASEB Journal, 2018)
